The record followed here is paper PMC4857006.

For data set [1], the target named is T1, mTdp2cat (Mus musculus, UniProt Q9JJX7 118-370).
T1 sequence: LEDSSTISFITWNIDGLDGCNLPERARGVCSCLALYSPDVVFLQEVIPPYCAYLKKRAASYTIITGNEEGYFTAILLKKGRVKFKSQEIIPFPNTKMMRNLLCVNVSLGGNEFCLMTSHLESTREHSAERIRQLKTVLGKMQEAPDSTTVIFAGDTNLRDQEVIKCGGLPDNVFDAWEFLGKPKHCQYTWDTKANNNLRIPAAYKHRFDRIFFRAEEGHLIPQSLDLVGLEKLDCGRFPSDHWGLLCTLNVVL
Description: X-ray crystallography (1.55 A); product complex; Crystals: hTdp2cat-DNA in 90 mM Tris pH 7.0, 27% PEG600, 9% glycerol, 450 mM (NH4)2SO4; mTdp2cat-DNA as in ref 20. Proteolysis buffer not in the material. Trp f.

In data set [2] the target is T2, hTdp2cat (Homo sapiens, UniProt O95551 108-362).
T2 sequence: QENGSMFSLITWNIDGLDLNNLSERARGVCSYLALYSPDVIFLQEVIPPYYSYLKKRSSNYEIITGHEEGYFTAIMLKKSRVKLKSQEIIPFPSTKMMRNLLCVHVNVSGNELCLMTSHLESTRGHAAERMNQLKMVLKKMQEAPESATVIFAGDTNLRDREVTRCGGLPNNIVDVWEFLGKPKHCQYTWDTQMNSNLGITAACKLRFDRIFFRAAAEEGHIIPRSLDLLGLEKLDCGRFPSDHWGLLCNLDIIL
Description: X-ray crystallography (3.2 A); product complex; Crystals: hTdp2cat-DNA in 90 mM Tris pH 7.0, 27% PEG600, 9% glycerol, 450 mM (NH4)2SO4; mTdp2cat-DNA as in ref 20. Proteolysis buffer not in the material. Trp f.

Data set [3] addresses T1, mTdp2cat. Description: X-ray crystallography; Mn2+ soak (5 mM MnCl2); Crystals: hTdp2cat-DNA in 90 mM Tris pH 7.0, 27% PEG600, 9% glycerol, 450 mM (NH4)2SO4; mTdp2cat-DNA as in ref 20. Proteolysis buffer not in the material. Trp f.
The target of data set [4] is T1, mTdp2cat. Briefly: X-ray crystallography (1.43 A); Mg2+; product complex; Crystals: hTdp2cat-DNA in 90 mM Tris pH 7.0, 27% PEG600, 9% glycerol, 450 mM (NH4)2SO4; mTdp2cat-DNA as in ref 20. Proteolysis buffer not in the material. Trp f.
The target in data set [5] is T1, mTdp2cat. Description: limited proteolysis protection (trypsin, chymotrypsin); Mg2+; more protection than Mg2+ alone; Crystals: hTdp2cat-DNA in 90 mM Tris pH 7.0, 27% PEG600, 9% glycerol, 450 mM (NH4)2SO4; mTdp2cat-DNA as in ref 20. Proteolysis buffer not in the material. Trp f.
Data set [6] addresses T2, hTdp2cat. Briefly: limited proteolysis protection (chymotrypsin); with or without Mg2+; Crystals: hTdp2cat-DNA in 90 mM Tris pH 7.0, 27% PEG600, 9% glycerol, 450 mM (NH4)2SO4; mTdp2cat-DNA as in ref 20. Proteolysis buffer not in the material. Trp f.

B1: 5'-P dA DNA (dsDNA)
DNA 1: ACGAATTCG
DNA 2: ACGAATTCG
modifications: 5'-phosphate
With B1, in data set [1], the binding result is “binds”.

B2: 5'-P dC DNA (dsDNA)
DNA 1: CCGAATTCG
DNA 2: CCGAATTCG
modifications: 5'-phosphate
Take B2: the binding result in data set [2] and in data set [3] was “binds” each time.

B3: 5'-P epsilonA DNA (dsDNA)
DNA 1: ACGAATTCG
DNA 2: ACGAATTCG
modifications: 5'-phosphate; 5'-terminal A is 1-N6-ethenoadenine
Turning to B3, the binding result in data set [4] is listed as “binds”.

B4: 12nt DNA (dsDNA)
DNA 1: CATCCGAATTCG
DNA 2: CATCCGAATTCG
modifications: 5'-phosphate
Consider B4, for which the binding result in data set [5] and in data set [6] was “binds” in each case.
